{"source": "paper PMC6305486", "key": {"FtsQ_(50–276)": {"biological_target": "FtsQ_(50–276) (UniProt P06136)", "sequence (P06136 whole entry, looked up, tested part not stated)": "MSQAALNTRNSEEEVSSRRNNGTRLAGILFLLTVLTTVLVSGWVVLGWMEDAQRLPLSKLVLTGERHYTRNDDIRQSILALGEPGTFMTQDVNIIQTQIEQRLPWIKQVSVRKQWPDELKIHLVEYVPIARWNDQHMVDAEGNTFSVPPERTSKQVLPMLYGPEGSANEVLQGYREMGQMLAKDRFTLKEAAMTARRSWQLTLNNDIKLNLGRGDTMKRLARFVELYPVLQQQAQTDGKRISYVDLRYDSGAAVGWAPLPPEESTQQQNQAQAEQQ", "assay": "BLI", "settings": "GST-e5-FtsB (mutant) in complex with k5-FtsL immobilized; FtsQ analyte 0-80 µM; parent: 0.24 ± 0.01"}, "[1]": {"biological_target": "GST-fused e5-FtsB_(25–103) E68A/k5-FtsL_(64–121) complex (E. coli) (UniProt P0A6S5)", "assay": "BLI; BLItz; GST-fused FtsB proteins or GST-e5-FtsB/k5-FtsL complexes immobilised on AR2G biosensor by amine coupling; FtsQ_(50–276) (WT or Y248A) in solution, 0.1–80 μM; running buffer 20 mM Tris-HCl pH 8.0, 200 mM NaCl; equilibrium analysis of points at 100 s"}, "[2]": {"biological_target": "GST-fused e5-FtsB_(25–103)/k5-FtsL_(64–121) complex (WT) (E. coli) (UniProt P0A6S5)", "assay": "BLI; BLItz; GST-fused FtsB proteins or GST-e5-FtsB/k5-FtsL complexes immobilised on AR2G biosensor by amine coupling; FtsQ_(50–276) (WT or Y248A) in solution, 0.1–80 μM; running buffer 20 mM Tris-HCl pH 8.0, 200 mM NaCl; equilibrium analysis of points at 100 s"}, "[3]": {"biological_target": "e5-FtsB_(25–103)/k5-FtsL_(64–121) complex (E. coli) (UniProt P0A6S5)", "assay": "SEC; analytical gel filtration, Superdex 200 10/300 GL, buffer B (20 mM Tris-HCl pH 8.0, 200 mM NaCl), 0.5 mL/min; low concentrations (6.8–22.2 μM); apparent Stokes radius compared with radii calculated from models"}, "[4]": {"biological_target": "e5-FtsB_(25–103)/k5-FtsL_(64–121) complex (E. coli) (UniProt P0A6S5)", "assay": "SEC; analytical gel filtration, Superdex 200 10/300 GL, buffer B (20 mM Tris-HCl pH 8.0, 200 mM NaCl), 0.5 mL/min; high concentrations (101–370 μM); apparent Stokes radius compared with radii calculated from models"}}, "data": [{"substance": "GST-fused e5-FtsB_(25–103)/k5-FtsL_(64–121) complex (WT) (from UniProt P0A6S5;P0AEN4) E69R", "values": [{"measurement": "Kd", "setting": "FtsQ_(50–276)", "result": "> 100", "unit": "µM"}]}, {"substance": "FtsQ_(50–276) (from UniProt P06136 50-276) (domain or fragment)", "values": [{"measurement": "fold reduction of affinity against WT", "setting": "[1]", "result": 10, "unit": "fold"}, {"measurement": "Kd", "setting": "[2]", "result": 0.24, "unit": "µM"}, {"measurement": "stoichiometry N (FtsQ:FtsB:FtsL ratio (1:1:1))", "setting": "[3]", "result": 1}, {"measurement": "stoichiometry N (FtsQ:FtsB:FtsL ratio (2:2:2))", "setting": "[3]", "result": 1}, {"measurement": "stoichiometry N (FtsQ:FtsB:FtsL ratio (1:1:1))", "setting": "[4]", "result": 1}, {"measurement": "stoichiometry N (FtsQ:FtsB:FtsL ratio (2:2:2))", "setting": "[4]", "result": 1}]}, {"substance": "GST-fused e5-FtsB_(25–103)/k5-FtsL_(64–121) complex (WT) (from UniProt P0A6S5;P0AEN4) R72E", "values": [{"measurement": "Kd", "setting": "FtsQ_(50–276)", "result": "> 100", "unit": "µM"}]}, {"substance": "GST-fused e5-FtsB_(25–103)/k5-FtsL_(64–121) complex (WT) (from UniProt P0A6S5;P0AEN4) E82R", "values": [{"measurement": "Kd", "setting": "FtsQ_(50–276)", "result": "> 100", "unit": "µM"}]}]}
